Data as given in patent publication US20220387586A1 (Hoffmann-La Roche, published 2022).
One block for each binder: values may come before it.

How the values were obtained:
[1] = target: T1, LAG3 on PD1+LAG3+ human U2OS cells (Homo sapiens (Human), UniProt P18627 23-525); assay: cellular PD1/LAG3 dimerization assay, 7500 PD1+LAG3+ U2OS cells a well, 20 h at 37 °C, chemoluminescence; the signal needs PD1 and LAG3 bound at once
T1 construct: also called cellular LAG3 (dimerization assay); not shown: subunit of the reporter enzyme fused to the cytosolic C-terminus
T1 sequence: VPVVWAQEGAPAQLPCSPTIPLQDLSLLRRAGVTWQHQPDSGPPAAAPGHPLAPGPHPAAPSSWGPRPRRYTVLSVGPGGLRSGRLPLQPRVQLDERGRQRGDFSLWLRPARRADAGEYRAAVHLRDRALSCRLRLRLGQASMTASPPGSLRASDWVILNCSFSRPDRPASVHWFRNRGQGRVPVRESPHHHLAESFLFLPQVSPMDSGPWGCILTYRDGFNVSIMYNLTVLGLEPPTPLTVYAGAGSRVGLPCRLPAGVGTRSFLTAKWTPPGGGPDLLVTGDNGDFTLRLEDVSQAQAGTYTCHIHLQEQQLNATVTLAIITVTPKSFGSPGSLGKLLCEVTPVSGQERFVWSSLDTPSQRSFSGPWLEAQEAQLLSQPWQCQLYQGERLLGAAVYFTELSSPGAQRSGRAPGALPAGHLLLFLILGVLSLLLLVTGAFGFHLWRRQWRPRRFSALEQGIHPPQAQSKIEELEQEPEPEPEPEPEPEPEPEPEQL
Procedure: (§1) Next, assay plates were equilibrated to room temperature and a substrate/buffer mix (PathHunterFlash detection reagent, Discoverx) was added and again incubated for 4h. For measuring chemoluminescence induced upon simultaneous binding and dimerization a SpectraMax L plate reader (Molecular Devices) was used.

[2] = target: T2, PD1 on PD1+LAG3+ human U2OS cells (UniProt Q15116 25-288); assay: as above
Procedure: as §1

[3] = target: T3, full-length human PD1 on cells (human, UniProt Q15116 25-288); assay: cell-based or functional assay
[4] = target: T4, LAG3 on cells (recombinant CHO cells expressing Lag3) (human, UniProt P18627 29-525); assay: cell-based or functional assay
T4 sequence: T1 sequence

[5] = target: T1, LAG3 on PD1+LAG3+ human U2OS cells; assay: cellular PD1/LAG3 dimerization assay on PD1+LAG3+ U2OS cells, chemoluminescence; the signal needs PD1 and LAG3 bound at once
Procedure: (§2) For this specific interaction, the cytosolic C-terminal ends of both receptors were individually fused to heterologous subunits of a reporter enzyme.
(§3) On the next day cell medium was discarded and replaced by fresh medium. Antibody or ligand dilutions were prepared and titrated amounts of indicated (bispecific) antibodies were added and incubated at 37° C. for 2 hours. Next, a substrate/buffer mix (e.g. PathHunterFlash detection reagent) was added and again incubated for 1h. For measuring chemoluminescence induced upon simultaneous binding and dimerization a Tecan infinite reader was used.

[6] = target: T2, PD1 on PD1+LAG3+ human U2OS cells; assay: as above
Procedure: as §2, §3

[7] = target: T3, full-length human PD1 on cells; assay: cell ELISA on CHO-K1 cells expressing full-length human PD1 (rel. EC50)
Summary of the method: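 Cells bound by test antibody were fixed with 0.05% glutaraldehyde for 10 min at RT, then detected with POD-conjugated anti-human H+L or anti-mouse secondary antibody for 1 h at RT. TMB development ran to OD 1.0-2.0, read at 370/492 nm.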

T2 sequence (Q15116 25-288): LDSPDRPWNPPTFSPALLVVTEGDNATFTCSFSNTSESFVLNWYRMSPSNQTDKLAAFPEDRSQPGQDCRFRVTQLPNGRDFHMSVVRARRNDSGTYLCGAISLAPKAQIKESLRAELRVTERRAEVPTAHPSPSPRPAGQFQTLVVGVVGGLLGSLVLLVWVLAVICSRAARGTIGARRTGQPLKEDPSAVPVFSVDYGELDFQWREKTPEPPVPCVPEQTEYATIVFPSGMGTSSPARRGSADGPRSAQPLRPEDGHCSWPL
T3 sequence (Q15116 25-288 limits assumed): as the sequence (Q15116 25-288) above

EC50 (read off the curve) [1]: ~50 pM | EC50 (read off the curve) [2]: ~50 pM | EC50 [nM], PD-1 & LAG-3 combo reporter assay (NFAT luciferase) [3]: 3.1 nM | EC50 [nM], PD-1 & LAG-3 combo reporter assay (NFAT luciferase) [4]: 3.1 nM | EC50 (read off the curve) [5]: ~0.02 µg/mL | EC50 (read off the curve) [6]: ~0.02 µg/mL | EC50 [7]: 100 pM
B1: PD1/LAG3 0927 (bispecific antibody, human IgG1, kappa, L234A L235A)
heavy 1: not shown
heavy 2: EVQLLESGGGLVQPGGSLRLSCAASGFIFDDYTMNWVRQAPGKGLEWVAVISWDGGGTYYTDSVKGRFTISRDDFKNTLYLQMNSLRAEDTAVYYCAKGLTDTTLYGSDYWGQGTLVTVSSASTKGPSVFPLAPSSKSTSGGTAALGCLVEDYFPEPVTVSWNSGALTSGVHTFPAVLQSSGLYSLSSVVTVPSSSLGTQTYICNVNHKPSNTKVDEKVEPKSCDKTHTCPPCPAPEAAGGPSVFLFPPKPKDTLMISRTPEVTCVVVDVSHEDPEVKFNWYVDGVEVHNAKTKPREEQYNSTYRVVSVLTVLHQDWLNGKEYKCKVSNKALGAPIEKTISKAKGQPREPQVCTLPPSRDELTKNQVSLSCAVKGFYPSDIAVEWESNGQPENNYKTTPPVLDSDGSFFLVSKLTVDKSRWQQGNVFSCSVMHEALHNHYTQKSLSLSPGK
light 1: EVQLLESGGGLVQPGGSLRLSCAASGFSFSSYTMSWVRQAPGKGLEWVATISGGGRDIYYPDSVKGRFTISRDNSKNTLYLQMNSLRAEDTAVYYCVLLTGRVYFALDSWGQGTLVTVSSASVAAPSVFIFPPSDEQLKSGTASVVCLLNNFYPREAKVQWKVDNALQSGNSQESVTEQDSKDSTYSLSSTLTLSKADYEKHKVYACEVTHQGLSSPVTKSFNRGEC
light 2: not shown
notes: 1+1 CrossMAb Vh-VL, knobs into holes, IgG1 PGLALA

EC50 (read off the curve) [5]: ~0.02 µg/mL | EC50 (read off the curve) [6]: ~0.02 µg/mL | EC50 [7]: 70 pM
B2: PD1/LAG3 0799 (bispecific antibody, human IgG1, kappa, L234A L235A)
heavy 1: not shown
heavy 2: EVQLVESGGGLVQPGGSLRLACAASGFTFSDYAMSWVRQAPGKGLEWVSGIDNSGYYTYYTDSVKGRFTISRDDVKNTLYLQMNSLRAEDTAVYLCTKTHSGLIVNDAFDIWGQGTMVTVSSASTKGPSVFPLAPSSKSTSGGTAALGCLVEDYFPEPVTVSWNSGALTSGVHTFPAVLQSSGLYSLSSVVTVPSSSLGTQTYICNVNHKPSNTKVDEKVEPKSCDKTHTCPPCPAPEAAGGPSVFLFPPKPKDTLMISRTPEVTCVVVDVSHEDPEVKFNWYVDGVEVHNAKTKPREEQYNSTYRVVSVLTVLHQDWLNGKEYKCKVSNKALGAPIEKTISKAKGQPREPQVCTLPPSRDELTKNQVSLSCAVKGFYPSDIAVEWESNGQPENNYKTTPPVLDSDGSFFLVSKLTVDKSRWQQGNVFSCSVMHEALHNHYTQKSLSLSPGK
light 1: B1 light 1
light 2: not shown
notes: as for B1
